The data set in a line: DTPA challenge of Ac-225 labeled TOPA-[C7]-phenylthiourea-h11B6 (iTLC). The class given is physicochemical. Conditions: for DTPA challenge: chelated Ac-225 (iTLC): labeling reaction mixture, 10 mM DTPA pH 6.5, 37° C., 30 min. On the procedure: 0.5 μL of the labeling reaction mixture was also mixed with 10 mM DTPA (pH=6.5, 15 μL) at 37° C. After 30 min, 10 μL of the mixture was spotted on iTLC-SG and developed by 10 mM EDTA. The dried iTLC-SG was left at room temperature for overnight before it was scanned on a Bioscan AR-2000 radio-TLC scanner. Under the elution conditions described herein, TOPA-[C7]-phenylthiourea-h11B6 chelated Ac-225 ^st ayed at the origin and any free Ac-225 would migrate with the solvent to the solvent front.
10 μL of fraction #3 collected after PD-10 column was mixed with 15 μL of 10 mM DTPA solution (pH 6.5), and incubated for 30 min. 10 μL of the mixture was loaded onto an iTLC-SG, which was developed with 10 mM EDTA and dried overnight. It was scanned on a Bioscan AR-2000 radio-TLC scanner.

Where [1] appears, read: 25 mM NaOAc, 0.04% PS-20, pH 5.5 (conjugate 10.4 mg/mL).
[2] abbreviates: 1.0M NaOAc, 0.04% PS-20 (conjugate 9.36 mg/mL).
Setting [3] is: 1.5M NaOAc, 0.04% PS-20 (conjugate 9.36 mg/mL).
[4] abbreviates: 3M NaOAc buffer (conjugate […]).

Regarding “Ac-225 labeled TOPA-[C7]-phenylthiourea-h11B6 antibody conjugate [Example 21]”, under “fraction #3 after PD-10 column, 10 mM DTPA pH 6.5, 30 min”, the “DTPA challenge of the purified conjugate: free Ac-225 (iTLC)” value was “no free Ac-225”. Moreover, the “DTPA challenge: chelated Ac-225 (iTLC)” value runs as follows: under setting [1], 99.8%; under setting [2], 99.9%; under setting [3], 99.9%; under setting [4], 99.7%.
As to “TOPA-[C7]-phenylthiourea-h11B6 Antibody Conjugate [Example 20]”, the “DTPA challenge: chelated Ac-225 (iTLC)” value by setting is: under setting [1], above 99%; under setting [2], above 99%; under setting [3], above 99%; under setting [4], above 99%.

Source of the values: US20250325718A1, “IMMUNOCONJUGATES COMPRISING KALLIKREIN RELATED PEPTIDASE 2 ANTIGEN BINDING DOMAINS AND THEIR USES” (Janssen Biotech, Inc., priority 2021, published 2025).
